The target in data set [1] is T1, UL9-COOH (C-terminal DNA-binding fragment of UL9) (Herpes simplex virus 1, UniProt P10193 P10193:535-851). Kind of data set: EMSA; flanks have little effect on off-rate; disrupted by distamycin A. The settings on record: tags: GST fusion from pGEX-2T, thrombin-cleaved; E. coli JM109; bacterial extracts also used; label: 32P.
For data set [2], the target named is T1, UL9-COOH (C-terminal DNA-binding …). Kind of data set: EMSA; flanks have little effect on off-rate; disrupted by doxorubicin. The settings on record: tags: GST fusion from pGEX-2T, thrombin-cleaved; E. coli JM109; bacterial extracts also used; label: 32P. Background: A gel shift assay detects complexes by their altered migration in electrophoresis.
Data set [3] has the same target. As to the kind of experiment: EMSA; flanks have little effect on off-rate; particularly disrupted by doxorubicin. The following applies: tags: GST fusion from pGEX-2T, thrombin-cleaved; E. coli JM109; bacterial extracts also used; label: 32P.
For data set [4] the target is unchanged. As to the kind of experiment: EMSA; flanks have little effect on off-rate. The following applies: tags: GST fusion from pGEX-2T, thrombin-cleaved; E. coli JM109; bacterial extracts also used; label: 32P.
Data set [5] shares this target. Kind of data set: EMSA; flanks have little effect on off-rate; disrupted by distamycin A and doxorubicin. The following applies: tags: GST fusion from pGEX-2T, thrombin-cleaved; E. coli JM109; bacterial extracts also used; label: 32P.
Data set [6] has the same target. Kind of data set: EMSA; flanks have little effect on off-rate; filter binding same; disrupted by actinomycin D. The following applies: tags: GST fusion from pGEX-2T, thrombin-cleaved; E. coli JM109; bacterial extracts also used; label: 32P.
The target is the same in data set [7]. Kind of data set: EMSA; flanks have little effect on off-rate; disrupted by actinomycin D and doxorubicin. The following applies: tags: GST fusion from pGEX-2T, thrombin-cleaved; E. coli JM109; bacterial extracts also used; label: 32P.
For data set [8] the target is unchanged. As to the kind of experiment: competition; unlabelled competitor in dissociation assay. The following applies: tags: GST fusion from pGEX-2T, thrombin-cleaved; E. coli JM109; bacterial extracts also used.

T1 sequence (P10193 535-851, one chain of several): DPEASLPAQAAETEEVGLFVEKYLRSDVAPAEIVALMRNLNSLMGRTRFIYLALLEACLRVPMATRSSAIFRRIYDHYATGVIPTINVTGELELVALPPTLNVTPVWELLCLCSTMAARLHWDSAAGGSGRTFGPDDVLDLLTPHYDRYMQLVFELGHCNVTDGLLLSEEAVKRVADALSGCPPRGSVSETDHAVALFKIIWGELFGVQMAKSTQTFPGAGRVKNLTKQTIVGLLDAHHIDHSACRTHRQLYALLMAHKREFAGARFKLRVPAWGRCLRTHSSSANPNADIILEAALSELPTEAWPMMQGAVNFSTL

B1: UL9 polyA (dsDNA)
DNA 1: GGAAAAAAACGTTCGCACTTAAAAAAAAGG
DNA 2: CCTTTTTTTTAAGTGCGAACGTTTTTTTCC
With B1, the binding result in data set [1] is “binds”.

B2: oriEco2 (dsDNA)
DNA 1: GGCGAATTCGACGTTCGCACTTCGTCCCAAT
DNA 2: ATTGGGACGAAGTGCGAACGTCGAATTCGCC
As for B2, the binding result in data set [2] was “binds”.

B3: oriEco3 (dsDNA)
DNA 1: GGCGAATTCGATCGTTCGCACTTCGTCCCAAT
DNA 2: ATTGGGACGAAGTGCGAACGATCGAATTCGCC
Turning to B3, the binding result in data set [3] is listed as “binds”.

B4: UL9 ATAT (dsDNA)
DNA 1: GGATATATACGTTCGCACTTTAATTATTGG
DNA 2: CCAATAATTAAAGTGCGAACGTATATATCC
Take B4: the binding result in data set [1] is reported as “binds”.

B5: ATori1 (dsDNA)
DNA 1: GCGTATATATCGTTCGCACTTCGTCCCAAT
DNA 2: ATTGGGACGAAGTGCGAACGATATATACGC
For B5, the binding result in data set [4] is reported as “binds”.

B6: UL9 polyT (dsDNA)
DNA 1: GGTTTTTTTCGTTCGCACTTTTTTTTTTGG
DNA 2: CCAAAAAAAAAAGTGCGAACGAAAAAAACC
As for B6, the binding result in data set [5] is on record as “binds”.

B7: UL9 CCCG (dsDNA)
DNA 1: GGCCCGCCCCGTTCGCACTTCCCGCCCCGG
DNA 2: CCGGGGCGGGAAGTGCGAACGGGGCGGGCC
For the molecule B7, the binding result in data set [6] was “binds”.

B8: UL9 GGGC (dsDNA)
DNA 1: GGCGGGCGCCGTTCGCACTTGGGCGGGCGG
DNA 2: CCGCCCGCCCAAGTGCGAACGGCGCCCGCC
In the case of B8, the binding result in data set [7] is given as “binds”.

B9: FIG. 5 oligo SEQ ID NO:610 (dsDNA)
DNA 1: GGACGCACGCGTTCGCACTTGCAGCAGCGG
DNA 2: CCGCTGCTGCAAGTGCGAACGCGTGCGTCC
For the molecule B9, the binding result in data set [4] is recorded as “binds”.

B10: 17 bp UL9 competitor (dsDNA)
DNA 1: GGTCGTTCGCACTTCGC
DNA 2: GCGAAGTGCGAACGACC
With B10, the binding result in data set [8] is on record as “binds”.

Values taken from patent US20030124530 (Genelabs Technologies, Inc., published 2003).
